Results reported in patent US20230405133A1, “PURIFIED MULTIVALENT PROTEIN-HYALURONIC ACID POLYMER CONJUGATES” (Valitor, Inc., priority 2022, published 2023).

How the values were obtained:
[1] = molecular target: T1, Human VEGF 165 (human, UniProt P15692-4 27-191); assay: BLI, VEGF 165 on probe, t = 0 (repeats Table 15); limit of detection
T1 construct: Loaded on the BLI probe as the ligand; also called BLI ligand Human VEGF 165 (Avi tag, R&D Systems AVI-293-050); not shown: Avi tag

[2] = molecular target: T1, Human VEGF 165; assay: BLI, VEGF 165 on probe; sample aged 4 days at 37 °C
[3] = molecular target: T1, Human VEGF 165; assay: BLI, VEGF 165 on probe, conjugate as analyte, t = 0; value is the limit of detection
[4] = molecular target: T1, Human VEGF 165; assay: BLI; KD after 14 days at 37 °C against KD at t = 0
[5] = molecular target: T1, Human VEGF 165; assay: BLI, VEGF 165 on probe; sample aged 14 days at 37 °C
[6] = molecular target: T1, Human VEGF 165; assay: BLI; KD after 4 days at 37 °C against KD at t = 0
[7] = molecular target: T1, Human VEGF 165; assay: BLI; KD after 28 days at 37 °C against KD at t = 0
[8] = molecular target: T1, Human VEGF 165; assay: BLI, VEGF 165 on probe; sample aged 28 days at 37 °C
[9] = molecular target: T1, Human VEGF 165; assay: BLI, VEGF 165 on probe; sample aged 14 days at 37 °C; limit of detection
[10] = molecular target: T1, Human VEGF 165; assay: BLI, VEGF 165 on probe, conjugate as analyte
[11] = molecular target: T1, Human VEGF 165; assay: BLI, VEGF 165 on probe, conjugate as analyte, t = 0
[12] = molecular target: T1, Human VEGF 165; assay: BLI, VEGF 165 on probe, conjugate as analyte, t = 0; t = 0, fresh conjugate, not aged

T1 sequence (P15692 other isoform, or with tags, fused parts or gaps limits assumed): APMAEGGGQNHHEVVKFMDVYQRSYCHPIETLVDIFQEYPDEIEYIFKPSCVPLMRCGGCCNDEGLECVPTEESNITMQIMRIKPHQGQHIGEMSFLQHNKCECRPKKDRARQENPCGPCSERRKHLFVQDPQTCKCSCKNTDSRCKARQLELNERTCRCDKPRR

Row | Binder | Kd [1] [nM] | Kd [2] [nM] | Kd [3] [nM] | Change in KD to t = 0 [4] [fold] | Kd [5] [nM] | Change in KD to t = 0 [6] [fold] | Kd [11] [nM] | further results
1 | Conjugate 21 (anti-VEGF VHH SEQ ID NO: 91 with aH linker SEQ ID NO: 21 on hyaluronic acid, intermediate 1-9) (VHH, C-terminal Cys of the peptide linker bound by its thiol to the maleimide of the organic linker MP2H on hyaluronic acid (830 kDa), Multivalent peptide-hyaluronic acid conjugate (MVP); peptide valency 51; Method 1 intermediate; also called BI VHH anti-VEGF MVP) VHH: DVQLVESGGGLVQPGGSLRLSCAASGRTFSSYSMGWFRQAPGKEREFVVAISKGGYKYDAVSLEGRFTISRDNAKNTVYLQINSLRPEDTAVYYCASSRAYGSSRLRLADTYEYWGQGTLVTVSS | < 0.001 | 3.3 | < 0.001 | 1140 | 1.14 | 3300 |  | 
2 | Conjugate 22 (anti-VEGF VHH SEQ ID NO: 91 with aH linker SEQ ID NO: 21 on hyaluronic acid, intermediate 1-10) (VHH, C-terminal Cys of the peptide linker bound by its thiol to the maleimide of the organic linker MP2H on hyaluronic acid (830 kDa), Multivalent peptide-hyaluronic acid conjugate (MVP); peptide valency 18; Method 1 intermediate; also called BI VHH anti-VEGF MVP) VHH: DVQLVESGGGLVQPGGSLRLSCAASGRTFSSYSMGWFRQAPGKEREFVVAISKGGYKYDAVSLEGRFTISRDNAKNTVYLQINSLRPEDTAVYYCASSRAYGSSRLRLADTYEYWGQGTLVTVSS | < 0.001 | 5.87 | < 0.001 | 142 | 0.142 | 5870 |  | 
3 | Conjugate 23 (anti-VEGF VHH SEQ ID NO: 91 with aH linker SEQ ID NO: 21 on hyaluronic acid, intermediate 1-11) (VHH, C-terminal Cys of the peptide linker bound by its thiol to the maleimide of the organic linker MP2H on hyaluronic acid (830 kDa), Multivalent peptide-hyaluronic acid conjugate (MVP); peptide valency 33; Method 1 intermediate; also called BI VHH anti-VEGF MVP) VHH: DVQLVESGGGLVQPGGSLRLSCAASGRTFSSYSMGWFRQAPGKEREFVVAISKGGYKYDAVSLEGRFTISRDNAKNTVYLQINSLRPEDTAVYYCASSRAYGSSRLRLADTYEYWGQGTLVTVSS | < 0.001 | 6.96 | < 0.001 | 1950 | 1.95 | 6960 |  | 
4 | Conjugate 2 (anti-VEGF DARPin SEQ ID NO: 92 on hyaluronic acid, intermediate 1-7) (designed binder, peptide bound through the organic linker MP2H to hyaluronic acid (830 kDa); site of attachment not stated, Multivalent peptide-hyaluronic acid conjugate (MVP); peptide valency 117; Method 1 intermediate; also called DARPin MVP (Method 1)) GSDLDKKLLEAARAGQDDEVRILMANGADVNARDSTGWTPLHLAAPWGHPEIVEVLLKNGADVNAADFQGWTPLHLAAAVGHLEIVEVLLKYGADVNAQDKFGKTAFDISIDNGNEDLAEILQKAAGGGSGGGS | < 0.001 |  | < 0.001 | 1 |  |  |  | Change in KD to t = 0 [7]: 17 fold; Kd [8]: 0.017 nM; Kd [9]: < 0.001 nM
5 | Conjugate 28 (N42 anti-VEGF VHH, HuNb42 A88P aH_CYS, SEQ ID NO: 145, on hyaluronic acid, Method B intermediate) (VHH, C-terminal Cys bound by its thiol to the maleimide of the organic linker MP2H on hyaluronic acid (830 kDa), Multivalent peptide-hyaluronic acid conjugate; valency 129) VHH: QVQLVESGGGLVQPGGSLRLSCAASGFAYSTYSMGWFRQAPGKEREAVATINSGTFRLWYTDSVKGRFTISRDNSKNTLYLQMNSLRPEDTAVYYCAARAWSPYSSTVDAGDFRYWGQGTLVTVSS |  |  |  |  |  |  |  | Kd [10]: 0.00107 nM
6 | Conjugate 3 (anti-VEGF DARPin SEQ ID NO: 92 on hyaluronic acid, intermediate 5-5) (designed binder, peptide bound through the organic linker MP2H to hyaluronic acid (830 kDa); site of attachment not stated, Multivalent peptide-hyaluronic acid conjugate (MVP); peptide valency 67; Method 5 intermediate; also called DARPin MVP (Method 5)) GSDLDKKLLEAARAGQDDEVRILMANGADVNARDSTGWTPLHLAAPWGHPEIVEVLLKNGADVNAADFQGWTPLHLAAAVGHLEIVEVLLKYGADVNAQDKFGKTAFDISIDNGNEDLAEILQKAAGGGSGGGS |  |  | < 0.001 |  |  |  |  | 
7 | Conjugate 9 (anti-VEGF E1-1 SEQ ID NO: 81 with aH linker SEQ ID NO: 21 on hyaluronic acid, intermediate 5-9) (VHH, C-terminal Cys of the peptide linker bound by its thiol to the maleimide of the organic linker MP2H on hyaluronic acid (830 kDa), Multivalent peptide-hyaluronic acid conjugate (MVP); peptide valency 51; Method 5 intermediate) VHH: EVQLQASGGGFVQPGGSLRLSCAASGGGSDAGTMGWFRQAPGKEREFVSAISWAGTAWRYYADSVKGRFTISRDNSKNTVYLQMNSLRAEDTATYYCALGSYEMDHHYWGQGTQVTVSS |  |  |  |  |  |  | 0.678 | 
8 | Conjugate 10 (anti-VEGF E1-1 SEQ ID NO: 81 with aH linker SEQ ID NO: 21 on hyaluronic acid, intermediate 2-4) (VHH, C-terminal Cys of the peptide linker bound by its thiol to the maleimide of the organic linker MP2H on hyaluronic acid (830 kDa), Multivalent peptide-hyaluronic acid conjugate (MVP); peptide valency 136; Method 2 intermediate; also called anti-VEGF E1-1 MVP (Method 2)) VHH: EVQLQASGGGFVQPGGSLRLSCAASGGGSDAGTMGWFRQAPGKEREFVSAISWAGTAWRYYADSVKGRFTISRDNSKNTVYLQMNSLRAEDTATYYCALGSYEMDHHYWGQGTQVTVSS |  |  |  |  |  |  | 0.123 | 
9 | Conjugate 13 (anti-VEGF VHH SEQ ID NO: 91 with Rigid linker SEQ ID NO: 31 on hyaluronic acid, intermediate 5-8) (VHH, C-terminal Cys of the peptide linker bound by its thiol to the maleimide of the organic linker MP2H on hyaluronic acid (830 kDa), Multivalent peptide-hyaluronic acid conjugate (MVP); peptide valency 72; Method 5 intermediate; also called BI VHH anti-VEGF MVP) VHH: DVQLVESGGGLVQPGGSLRLSCAASGRTFSSYSMGWFRQAPGKEREFVVAISKGGYKYDAVSLEGRFTISRDNAKNTVYLQINSLRPEDTAVYYCASSRAYGSSRLRLADTYEYWGQGTLVTVSS |  |  |  |  |  |  | 0.011 | 
10 | Conjugate 14 (anti-VEGF VHH SEQ ID NO: 91 with Rigid linker SEQ ID NO: 31 on hyaluronic acid, intermediate 5-3) (VHH, C-terminal Cys of the peptide linker bound by its thiol to the maleimide of the organic linker MP2H on hyaluronic acid (830 kDa), Multivalent peptide-hyaluronic acid conjugate (MVP); peptide valency 68; Method 5 intermediate; also called BI VHH anti-VEGF MVP) VHH: DVQLVESGGGLVQPGGSLRLSCAASGRTFSSYSMGWFRQAPGKEREFVVAISKGGYKYDAVSLEGRFTISRDNAKNTVYLQINSLRPEDTAVYYCASSRAYGSSRLRLADTYEYWGQGTLVTVSS |  |  |  |  |  |  |  | Kd [12]: 0.203 nM
